Reference: US20190085084A1 (published 2019)

Tests used:
[1] = target: T1, mouse Sortilin (R&D Systems), recombinant (mouse, UniProt Q6PHU5 74-754, limits assumed); experiment: ELISA, biotinylated Progranulin on plate-immobilized Sortilin
T1 construct: Bought protein; also called mouse SORT1
Description: (§1) Briefly, human or mouse Sortilin (R&D Systems) was immobilized overnight on an ELISA plate (2 μg/ml in PBS). The plates were washed in wash buffer (PBS+0.05% TWEEN20) and blocked for one hour at 37° C. with binding buffer (PBS+1% BSA). […] Plates were washed thrice in wash buffer and incubated with Streptavidin-HRP (1:200 in binding buffer, R&D Systems) for 20 min. Plates were washed thrice again and incubated with TMB substrate solution until color developed. The reaction was stopped by adding 50 ul of 2N sulfuric acid and color was quantified using a Biotek Synergy H1 plate reader. Data was analyzed and fitted in Prism.

[2] = target: T2, human Sortilin expressed on HEK293T cells (human, UniProt Q99523 78-830); experiment: flow cytometry titration on HEK293T cells expressing human Sortilin, 4 C, apparent KD
T2 construct: also called hSort; HEK293T+ hSort

[3] = target: T3, mouse Sortilin expressed on HEK293T cells (mouse, UniProt Q6PHU5 74-825); experiment: flow cytometry titration on HEK293T cells expressing mouse Sortilin, 4 C, apparent KD
T3 construct: also called msSort; mSort

[4] = target: T4, Human His-tagged Sortilin (R&D Systems) (human, UniProt Q99523 78-755); experiment: ELISA, biotinylated Progranulin on plate-immobilized Sortilin
T4 construct: Bought protein; also called His-captured Sortilin (SORT1); Histidine-tagged human Sortilin
Description: as §1

[5] = target: T4, Human His-tagged Sortilin (R&D Systems); experiment: Biacore SPR, Sortilin captured by anti-His antibody on CM5 chip, Progranulin flowed over
Excerpt: Briefly, Sortilin was captured on a CM5 sensor chip that was immobilized with an anti-His antibody (kit from GE). Progranulin was flowed over in HBS binding buffer at various concentrations. Fitting of sensorgrams for affinity estimations was done using BIAevaluation version 3.1.

B1: recombinant mouse Progranulin (Adipogen) (ligand, UniProt P28798 18-589, looked up)
chain: TQCPDGQFCPVACCLDQGGANYSCCNPLLDTWPRITSHHLDGSCQTHGHCPAGYSCLLTVSGTSSCCPFSKGVSCGDGYHCCPQGFHCSADGKSCFQMSDNPLGAVQCPGSQFECPDSATCCIMVDGSWGCCPMPQASCCEDRVHCCPHGASCDLVHTRCVSPTGTHTLLKKFPAQKTNRAVSLPFSVVCPDAKTQCPDDSTCCELPTGKYGCCPMPNAICCSDHLHCCPQDTVCDLIQSKCLSKNYTTDLLTKLPGYPVKEVKCDMEVSCPEGYTCCRLNTGAWGCCPFAKAVCCEDHIHCCPAGFQCHTEKGTCEMGILQVPWMKKVIAPLRLPDPQILKSDTPCDDFTRCPTNNTCCKLNSGDWGCCPIPEAVCCSDNQHCCPQGFTCLAQGYCQKGDTMVAGLEKIPARQTTPLQIGDIGCDQHTSCPVGQTCCPSLKGSWACCQLPHAVCCEDRQHCCPAGYTCNVKARTCEKDVDFIQPPVLLTLGPKVGNVECGEGHFCHDNQTCCKDSAGVWACCPYLKGVCCRDGRHCCPGGFHCSARGTKCLRKKIPRWDMFLRDPVPRPLL
notes: Used biotinylated; also called mPGRN; mouse PGRN
- Kd [1]: 40 nM

B2: anti-Sortilin antibody S-22-7 (antibody, V domains shown)
VH: QVQLVQSGAEVKKPGSSVKVSCKASGGTFSSYAISWVRQAPGQGLEWMGGIIPGFGRANYAQKFQGRVTITADESTSTAYMELSSLRSEDTAVYYCARQGRKTGYYYYYGMDVWGQGTTVTVSS
VL: DIQMTQSPSTLSASVGDRVTITCRASQSISSWLAWYQQKPGKAPKLLIYKASSLESGVPSRFSGSGSGTEFTLTISSLQPDDFATYYCQQADGHITFGGGTKVEIK
- Kd [2]: 2.05 nM

B3: anti-Sortilin antibody S-15-6-12 (antibody, V domains shown)
VH: QVQLVQSGAEVKKPGASVKVSCKASGYTFTSRYMSWVRQAPGQGLEWMGIINPVGGSTSYAQKFQGRVTMTRDTSTSTVYMELSSLRSEDTAVYYCARDPSGIALAGPGSPYYRGMDVWGQGTTVTVSS
VL: EIVMTQSPATLSVSPGERATLSCRASQSVSSNLAWYQQKPGQAPRLLIYGASTRATGIPARFSGSGSGTEFTLTISSLQSEDFAVYYCQQARLGPWTFGGGTKVEIK
- Kd [3]: 6.62 nM
- Kd [2]: 3.84 nM

B4: anti-Sortilin antibody S-15-10-12 (antibody, V domains shown)
VH: QVQLVQSGAEVKKPGASVKVSCKASGYTFTKYYMSWVRQAPGQGLEWMGIINPIGGSTSYAQKFQGRVTMTRDTSTSTVYMELSSLRSEDTAVYYCARDPSGIAAAFPAGRYYYGMDVWGQGTTVTVSS
VL: EIVMTQSPATLSVSPGERATLSCRASQSVSSNLAWYQQKPGQAPRLLIYGASTRATGIPARFSGSGSGTEFTLTISSLQSEDFAVYYCQQARLGPWTFGGGTKVEIK
- Kd [3]: 8.89 nM
- Kd [2]: 4.3 nM

B5: recombinant human Progranulin (Adipogen) (ligand, UniProt P28799 18-593, looked up)
chain: TRCPDGQFCPVACCLDPGGASYSCCRPLLDKWPTTLSRHLGGPCQVDAHCSAGHSCIFTVSGTSSCCPFPEAVACGDGHHCCPRGFHCSADGRSCFQRSGNNSVGAIQCPDSQFECPDFSTCCVMVDGSWGCCPMPQASCCEDRVHCCPHGAFCDLVHTRCITPTGTHPLAKKLPAQRTNRAVALSSSVMCPDARSRCPDGSTCCELPSGKYGCCPMPNATCCSDHLHCCPQDTVCDLIQSKCLSKENATTDLLTKLPAHTVGDVKCDMEVSCPDGYTCCRLQSGAWGCCPFTQAVCCEDHIHCCPAGFTCDTQKGTCEQGPHQVPWMEKAPAHLSLPDPQALKRDVPCDNVSSCPSSDTCCQLTSGEWGCCPIPEAVCCSDHQHCCPQGYTCVAEGQCQRGSEIVAGLEKMPARRASLSHPRDIGCDQHTSCPVGQTCCPSLGGSWACCQLPHAVCCEDRQHCCPAGYTCNVKARSCEKEVVSAQPATFLARSPHVGVKDVECGEGHFCHDNQTCCRDNRQGWACCPYRQGVCCADRRHCCPAGFRCAARGTKCLRREAPRWDAPLRDPALRQLL
notes: Used unlabelled, biotinylated (NHS-PEG4 or Sulfo-NHS) or labelled with DyLight 650, as the assay says; also called PGRN; hPGRN
- Kd [4]: 14 nM
- Kd [5]: 14.3 nM
